Experimental data from patent US20240417436A1 (BRIGHT PEAK THERAPEUTICS, published 2024).
*1 amine or outer side, *2 acyl side, *3 side chain or, on linkers, in order; H or OH if unused. Bridges are numbered along the chain shown (N, C = ends). Primed or numbered codes have the meaning given here. [ ]: non-standard residue; d: D form. cleavable peptide RGRRVANLVG = CC(C)C[C@H](NC(=O)[C@H](CC(N)=O)NC(=O)[C@H](C)NC(=O)[C@@H](NC(=O)[C@H](CCCNC(=N)N)NC(=O)[C@H](CCCNC(=N)N)NC(=O)CNC(=O)[C@H](CCCNC(=N)N)N[*:1])C(C)C)C(=O)N[C@H](C(=O)NCC(=O)[*:2])C(C)C; Ygp = O-(8x polyethylene glycol-amino)-tyrosine; Yn3 = O-(9x polyethylene glycol-azido)-tyrosine; Ygp(3) = O-(PEG8-amino)-tyrosine; Yn3(3) = O-(PEG9-azido)-tyrosine; hSer = N[C@@H](CCO)C(=O)O; Nle = CCCC[C@H](N)C(=O)O

Experiments:
[1] = biological target: T1, recombinant human IL-2 receptor beta containing a His-tag and Avi-Tag (R&D Systems #AVI10459) (human, UniProt P14784 27-239); experiment: BLI (Octet), receptor on SAX2 sensor, IL-2 as analyte
T1 construct: bought protein, held on the Octet SAX2 sensor; also called CD122; IL-2Rβ
T1 sequence (looked up): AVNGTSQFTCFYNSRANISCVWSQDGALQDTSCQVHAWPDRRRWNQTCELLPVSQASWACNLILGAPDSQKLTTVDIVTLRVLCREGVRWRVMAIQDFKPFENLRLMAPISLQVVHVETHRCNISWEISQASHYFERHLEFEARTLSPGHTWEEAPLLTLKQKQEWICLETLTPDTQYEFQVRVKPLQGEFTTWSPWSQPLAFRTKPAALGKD

[2] = biological target: T2, Avi-Tag Fc with human IL-2R beta and IL-2R gamma attached (Acrobiosystems ACRB-ILG-H82F3-25UG) (human, UniProt P14784 27-239; P31785 23-262); experiment: as above
T2 construct: bought heterodimer; also called CD122 CD132; CD122/CD132 complex
T2 sequence (looked up) 1: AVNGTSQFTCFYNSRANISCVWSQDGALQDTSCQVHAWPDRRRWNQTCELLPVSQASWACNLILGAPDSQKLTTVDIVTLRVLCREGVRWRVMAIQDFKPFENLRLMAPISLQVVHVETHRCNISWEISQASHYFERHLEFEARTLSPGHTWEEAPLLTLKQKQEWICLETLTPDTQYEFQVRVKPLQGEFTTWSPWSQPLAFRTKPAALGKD
T2 sequence (looked up) 2: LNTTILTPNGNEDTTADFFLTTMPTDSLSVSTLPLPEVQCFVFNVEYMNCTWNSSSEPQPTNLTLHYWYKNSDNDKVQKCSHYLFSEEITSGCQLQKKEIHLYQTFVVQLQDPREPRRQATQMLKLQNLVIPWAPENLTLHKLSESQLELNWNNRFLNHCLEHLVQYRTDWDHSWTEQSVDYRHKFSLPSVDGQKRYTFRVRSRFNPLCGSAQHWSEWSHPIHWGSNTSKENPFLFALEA

[3] = biological target: T1, recombinant human IL-2 receptor beta …; experiment: BLI (Octet), receptor on SAX2 sensor, IL-2 as analyte; construct CMP-328
Procedure: (§1) Bilayer interferometry (BLI) assays were used to measure the binding constants between activatable IL-2 polypeptides (and activated versions thereof) to IL-2 receptor subunits or receptor complexes. BLI assays were conducted on an Octet® R8 instrument. Assay plates were 96 well, polypropylene, F-bottom (chimney well), black microplates (Greiner Bio-one, Cat. No: 655209). The biosensors were Octet® SAX2 (Sartorius, Cat. No: 18-5136). The assay buffer was 1× Kinetic Buffer (Sartorius, Cat. no: 18-5136) or Phosphate Buffered Saline (PBS) that contained 0.02% (v: v) Tween 20 (Polysorbate 20) and 0.1% (w/v) bovine serum albumin (BSA). The sensor was regenerated between measurements in 10 mM glycine pH 2.7 buffer.
(§2) Sensor attached receptors were either recombinant human IL-2 receptor beta containing a His-tag and Avi-Tag™ (R&D Systems™ #AVI10459) or an Avi-Tag™ Fc with human IL-2R beta and IL-2R gamma attached (Acrobiosystems Cat. no: ACRB-ILG-H82F3-25UG). Receptors were reconstituted from lyophilized powder to 500 μg/ml in PBS. Analytes were diluted in Kinetic buffer to 300 nM, then serially diluted to lower concentrations.

[4] = biological target: T1, recombinant human IL-2 receptor beta …; experiment: BLI (Octet), receptor on SAX2 sensor, IL-2 as analyte; construct CMP-313
Procedure: as §1, §2

[5] = biological target: T1, recombinant human IL-2 receptor beta …; experiment: BLI (Octet), receptor on SAX2 sensor, IL-2 as analyte; construct CMP-166, intact (not the MMP2-treated row r19)
Procedure: as §1, §2

[6] = biological target: T1, recombinant human IL-2 receptor beta …; experiment: BLI (Octet), receptor on SAX2 sensor, IL-2 as analyte; construct CMP-167, intact (not the MMP2-treated row r22)
Procedure: as §1, §2

B1: CMP-328 (ligand)
chain: APTSSSTKKTQLQLEHLLLDLQEILNGINNYKNPKLTR[Nle]L[hSer][Yn3(3)]KF[Ygp(3)][Nle]PKKATELKHLQCLEEELKPLEEVL[hSer]LAQSKNFHLRPRDLISNINVIVLELKGSETTF[hSer]CEYADETATIVEFLNRWITFSQSIISTLT
modifications: disulfide 58-105; linker 9-23 via cleavable peptide RGRRVANLVG; also: macrocycle: cleavable peptide bridging Lys9 and Glu23 side chains (structure drawing only)
B1 gave a koff [1] of 0.00154 s⁻¹, a kon [1] of 4.52e+07 M⁻¹ s⁻¹ and a Kd [2] of 24.9 nM. It also gave a koff [2] of 0.00194 s⁻¹, a kon [2] of 77800 M⁻¹ s⁻¹ and a Kd [3] of 0.034 nM.

B2: CMP-313 (ligand)
chain: APTSSSTKKTQLQLEHLLLDLQK(KKRGRRVANLVG)ILNGINNYKNPKLTR[Nle]L[hSer][Yn3(3)]KF[Ygp(3)][Nle]PKKATELKHLQCLEEELKPLEEVL[hSer]LAQSKNFHLRPRDLISNINVIVLELKGSETTF[hSer]CEYADETATIVEFLNRWITFSQSIISTLT
modifications: disulfide 58-105; also: branched 27x PEG chains on the attached peptide
For B2, the Kd [4] was 163 nM and the koff [2] was 0.00148 s⁻¹.

B3: CMP-166 (ligand)
chain: APTSSSTKKTQLQLEHLLLDLQKILNGINNYKNPKLTR[Nle]L[hSer][Yn3]KF[Ygp][Nle]PKKATELKHLQCLEEELKPLEEVL[hSer]LAQSKNFHLRPRDLISNINVIVLELKGSETTF[hSer]CEYADETATIVEFLNRWITFSQSIISTLT
modifications: disulfide 58-105 (inferred); bridge N-23; not fully specified (bridges); also: cleavable peptide (sequence not given here) joined to N-terminus via glutaryl-PEG4 and to Lys23 side chain
B3 was tested, and the Kd [5] was 614 nM.

B4: CMP-167 (ligand)
chain: APTSSSTKKTQLQLEHLLLDLQKILNGINNYKNPKLTR[Nle]L[hSer][Yn3]KF[Ygp][Nle]PKKATELKHLQCLEEELKPLEEVL[hSer]LAQSKNFHLRPRDLISNINVIVLELKGSETTF[hSer]CEYADETATIVEFLNRWITFSQSIISTLT
modifications: disulfide 58-105 (inferred); bridge N-23; not fully specified (bridges); also: cleavable peptide (sequence not given here) joined to N-terminus via glutaryl-PEG9 and to Lys23 side chain
For B4, the Kd [6] was 215 nM.
